Reference: patent publication US20080108128A1, “Resonance Energy Transfer Assay System for Multi-Component Detection” (priority 2003, published 2008)

Target: T1, CCR2 (Homo sapiens, UniProt P41597)
T1 construct: expressed in transfected cells; host or cells: Cos-7
Assay: multiplex BRET assay of ligand induced CCR2:beta-arrestin-2 interaction in live Cos-7 cells
Assay type: cell-based
Settings: Cos-7 cells co-expressing Rluc-Barr2, TRHR and CCR2 fusions (EYFP / t-dimer2(12)); MCP1 0.1 μM, 37° C. 10 min; coelenterazine h 5 μM
Excerpt: A construct for the expression of bovine beta-arrestin-2, N-terminally fused to Rluc (Rluc-Barr2) was constructed by amplification of the bovine beta-arrestin-2 coding sequence by PCR using the Barr2-fw and Barr2-re primers (template: construct containing bovine beta-arrestin2 in pcDNA3 (Invitrogen)). The 5′ and 3′ primers used contained EcoRV and NotI restriction enzyme sites, respectively. A second PCR product, containing the coding sequence for Rluc, was generated by amplifying the Rluc cDNA sequence with the primers Rluc-fw and Rluc-re using the plasmid pRL-CMV (Promega) as a template. This second PCR product contained HindIII and EcoRV restriction site at the 5′ and 3′ ends, respectively. Both PCR products were then cloned together into the HindIII/NotI sites of pcDNA3 (Invitrogen). […]
Ligands or combinations of ligands were added to the samples to a final concentration of 1 μM for TRH and 0.1 μM for MCP1, the natural ligands for the TRHR and CCR2 receptors, respectively. […] A Varian Eclipse fluorescence spectrometer (Varian) was used to record luminescence spectra in the range between 400-700 nm after coelenterazine h (Molecular Probes) was added to the samples to a final concentration of 5 μM.
The spectra were further analysed by integrating the peak areas of the EYFP and t-dimer2(12) emission peaks as described in Example 2. […]

T1 sequence (P41597 1-360 isoform P41597-2): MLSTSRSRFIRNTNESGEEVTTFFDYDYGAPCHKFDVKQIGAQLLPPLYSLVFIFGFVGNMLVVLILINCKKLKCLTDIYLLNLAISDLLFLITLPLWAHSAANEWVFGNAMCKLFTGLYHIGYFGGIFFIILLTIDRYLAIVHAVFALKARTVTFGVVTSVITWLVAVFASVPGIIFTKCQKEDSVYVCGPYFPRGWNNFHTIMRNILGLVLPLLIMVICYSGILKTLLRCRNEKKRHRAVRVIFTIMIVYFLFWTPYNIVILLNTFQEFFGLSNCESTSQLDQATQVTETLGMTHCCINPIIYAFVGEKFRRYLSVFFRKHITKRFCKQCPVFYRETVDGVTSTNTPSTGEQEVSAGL
T1 sequence (P32120 whole entry partner): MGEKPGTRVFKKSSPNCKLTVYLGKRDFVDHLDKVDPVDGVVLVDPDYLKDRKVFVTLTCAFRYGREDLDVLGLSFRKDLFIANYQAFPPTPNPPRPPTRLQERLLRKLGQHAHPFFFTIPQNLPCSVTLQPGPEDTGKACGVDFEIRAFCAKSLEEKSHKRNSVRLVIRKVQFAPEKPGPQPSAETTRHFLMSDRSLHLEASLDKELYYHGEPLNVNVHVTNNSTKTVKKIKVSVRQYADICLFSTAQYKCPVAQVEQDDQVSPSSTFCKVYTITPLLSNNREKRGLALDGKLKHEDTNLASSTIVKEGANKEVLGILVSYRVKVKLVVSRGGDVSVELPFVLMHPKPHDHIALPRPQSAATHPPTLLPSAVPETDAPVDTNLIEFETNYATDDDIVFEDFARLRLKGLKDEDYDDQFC

MCP1: natural ligand for the CCR2 receptor
ligand induced RET signal of CCR2 with Rluc-beta-arrestin-2: activated this receptor as was observed in an increase of the respective RET signal with beta-arrestin-2
